Results taken from PMC4249980.

Biological target: recombinant GST-BNIP3 protein (rat BNIP3) (rat)
Experiment: SDS-PAGE and Western blot; GST-BNIP3 incubated with isolated rat liver mitochondria for 1 hour at 37°C in calcium-free buffer; mitochondrial and supernatant fractions blotted with a BNIP3 antibody; 90 kD band

stoichiometry N: 2
Substance: recombinant GST-BNIP3 protein (rat BNIP3) (natural protein)
